Experimental data reported in patent US7871610B2, “Antibodies to Tie1 ectodomain” (Dyax Corp., priority 2003, dated 2011).
“Also recorded” adds a separate entry of the source.

What was measured:
[1] = test system: SW-480 (colorectal cancer) cells; test: SW-480 colorectal cancer xenograft in nu/nu mice; assay type: in vivo, mouse; details: average per group
Method: Mice (nu/nu) were implanted subcutaneously with 5×10^6 SW-480 (colorectal cancer) cells. After 12 days, when tumors reached approximately 100-200 mg, the mice were separated into 5 groups and treated with the following agents (or left untreated): • 1—Untreated • 2—Vehicle (PBS) • 3—Cisplatin (4 mg/kg/, IV, q2d×5 times) • 4—A2-SV (negative control antibody @ 10 mg/kg, IP, q2d×14 times) • 5—DX-2220 (anti-Tie-1 antibody @ 10 mg/kg, IP, q2d×14 times)
Throughout the study, the length (L) and width (W) of any tumors that developed were measured in millimeters using calibrated vernier calipers, where L is the longer of the two dimensions. When applicable, tumor weight (M) in milligrams was calculated by using the formula associated with a prolate ellipsoid: M=(L×W^2)/2. […] A2-SV is an isotype matched (IgG1) negative control antibody that binds strepavidin.

[2] = biological target: T1, Tie1-EpoR chimeric receptor (UniProt P14753+P35590); test: Ba/F3 bioassay (Tie1/EpoR chimeric BaF3 cell assay), MTT viability; assay type: cell-based, human; details: 100 ng/ml E3 IgG together with 100 (1:1) or 500 (1:5) ng/ml of the other antibody
T1 construct: the PCR amplified extracellular part of human Tie1 (bp 37-2316 of X60975); expressed in transfected cells
T1 sequence (P35590+P14753 with tags, fused parts or gaps): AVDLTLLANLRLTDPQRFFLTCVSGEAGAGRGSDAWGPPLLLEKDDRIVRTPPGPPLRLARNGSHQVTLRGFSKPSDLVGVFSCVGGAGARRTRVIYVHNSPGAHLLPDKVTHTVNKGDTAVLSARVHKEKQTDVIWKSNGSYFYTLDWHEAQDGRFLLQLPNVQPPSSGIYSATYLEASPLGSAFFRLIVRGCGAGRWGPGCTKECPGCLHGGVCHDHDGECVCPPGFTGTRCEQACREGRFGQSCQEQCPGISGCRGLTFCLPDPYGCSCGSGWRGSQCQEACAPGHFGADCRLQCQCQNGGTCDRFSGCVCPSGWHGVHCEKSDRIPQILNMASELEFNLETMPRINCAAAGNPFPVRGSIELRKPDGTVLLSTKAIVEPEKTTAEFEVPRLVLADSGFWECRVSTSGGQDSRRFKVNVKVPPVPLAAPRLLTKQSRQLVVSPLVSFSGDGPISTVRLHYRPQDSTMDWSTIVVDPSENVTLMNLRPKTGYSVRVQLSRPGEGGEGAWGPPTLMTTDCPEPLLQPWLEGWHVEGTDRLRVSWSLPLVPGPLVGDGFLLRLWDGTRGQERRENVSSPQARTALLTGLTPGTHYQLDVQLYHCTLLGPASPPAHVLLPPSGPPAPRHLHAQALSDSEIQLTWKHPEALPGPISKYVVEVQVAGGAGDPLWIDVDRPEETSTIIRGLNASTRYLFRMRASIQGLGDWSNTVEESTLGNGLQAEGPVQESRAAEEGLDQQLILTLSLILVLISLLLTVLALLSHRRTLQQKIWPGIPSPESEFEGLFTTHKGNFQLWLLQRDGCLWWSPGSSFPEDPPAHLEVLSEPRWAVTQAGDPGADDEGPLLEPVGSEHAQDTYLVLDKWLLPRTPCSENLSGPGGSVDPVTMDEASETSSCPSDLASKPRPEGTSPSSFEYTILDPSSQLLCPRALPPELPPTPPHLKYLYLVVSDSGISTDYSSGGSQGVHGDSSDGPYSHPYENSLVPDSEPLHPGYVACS
Description: To generate Tie1-EpoR expressing Ba/F3 cells for the bioassay, Ba/F3 pre-B cells were stably transfected with a nucleic acid that expresses chimeric receptor containing the extracellular domain of human Tie1 fused with the transmembrane and cytoplasmic domains of the mouse erythropoietin receptor. The nucleic acid used was a Tie1-EpoR chimeric cDNA in a pEF-BOS expression vector. The nucleic acid encoding the chimeric receptor was constructed by cloning the PCR amplified extracellular part of human Tie1 (bp 37-2316 of X60975) as EcoRI-BglII fragment into mEpoR-pcDNA vector. The cDNA encoding for the chimeric receptor consisting of the extracellular part of Tie1 fused with the transmembrane and intracellular domains of EpoR was subcloned into the pEF-BOS expression vector. Vector was linearized and co-transfected into Ba/F3 cells with pcDNA3.1(+) Zeo vector (Invitrogen). Stable cell pools were generated by selection with 250 μg/ml Zeocin. The expression of Tie1/EpoR fusion protein in several clones was analyzed by Western blotting with an antibody against EpoR.
To perform the assays, Ba/F3 cells expressing the Tie 1-EpoR chimera were split in 96-well microtiter plates at 50 000 cells/well in the presence of the indicated concentrations of anti-Tie1 antibodies. As controls, Zeocin resistant pools not expressing the Tie1-EpoR were used. After 48 h, the viability of the cells was determined by adding MTT (3-(4,5-dimethylthiazol-2-yl)-2,5-diphenyl tetrazolium bromide (Sigma), 0.5 mg/ml), followed by further 2 h of culture, addition of an equal volume of cell lysis solution (10% SDS, 10 mM HCl) and incubation overnight at 37° C. Absorbance was measured at 540 nm.
Although no ligand for Tie1 has been identified, we used the following efficient screening method for Tie1-binding proteins. Interleukin-3 dependent pre-B-lymphocyte (Ba/F3) cells were transfected with a construct that expresses a Tie1-EpoR fusion protein. Since Ba/F3 cells are IL-3 dependent, they die unless IL-3 is provided. However, Tie-EpoR receptor expressing Ba/F3 cells can survive and proliferate if the medium contains a Tie1-binding protein, either a natural ligand or an artificial mimetic. Cell survival can be quantitated, e.g., by colorimetric MTT-assay, which measures mitochondrial activity.

[3] = biological target: Tie1 (Homo sapiens, UniProt P35590); test: Immunohistochemistry of matched human tumor and normal tissue sections; set-up: from tissue; host or cells: fresh frozen normal and tumor tissue (e.g. lung, kidney, skin, breast); details: 10 μg/ml, fresh frozen tissue
Method: The Tie-1 antibodies were biotinylated using the EZ-link Sulfo-NHS-SS-Biotin (Pierce, Cat. 21331). For Tie-1/Fc and Tie-1-His, the reaction was performed for 2 hours on ice in 50 mM sodium carbonate buffer, pH 9.6, in the presence of a 5-fold molar excess of biotinylating agent. For the antibodies, the reaction was performed for 2 hours on ice in PBS, in the presence of a 15-fold molar excess of EZ-link Sulfo-NHS-SS-Biotin. The reaction was stopped by the addition of Tris-HCl, pH 7.5 (50 mM final concentration) followed by a 1-hour incubation on ice. Samples were then dialyzed against PBS.
Various normal and tumor tissue sections were stained with biotinylated antibodies. A mouse monoclonal anti-Tie1 antibody (7e8) (Alitalo laboratory, University of Helsinki) was used as a positive control. Sections without primary antibody served as negative control. All samples were fresh frozen tissues and staining was performed with the TSA-kit (Perkin-Elmer Life Sciences). After acetone fixation (10-20 min, −20° C.) the slides were treated with 0.73% H2O2 for 10 min to reduce endogenous peroxidase activity followed by blocking for 30 min with TNB buffer. Sections ([…] thick) were incubated with primary antibodies (10 μg/ml) overnight at 4° C. Sections with the mouse monoclonal anti-tie1 antibody (7e8) were treated with biotinylated anti-mouse antibodies (VectaStain) before the addition of streptavidin-HRP. Signal was amplified by using a TSA kit and the visualized by AEC (235 ml NaAc, 15 ml AEC (stock solution: 1600 mg 3-amino-9-ethyl-carbazole and 480 ml N-dimethylformamide), 250 μl H2O2).

[4] = test system: bFGF-induced angiogenesis; test: […] plug assay, bFGF-induced angiogenesis in NMRI nu/nu mice; assay type: in vivo, mouse; details: first assay, day 7; bFGF 80 ng/ml; antibody 10 μg/ml in plug; E3 = germlined variant, IgG4
Method: The germlined variant of the E3 IgG antibody was evaluated in an in vivo assay for angiogenesis induced by bFGF in […]™ plugs. Growth factor reduced […]™ (BD Biosciences, catalog # 354230) was supplemented with 80 ng/ml of bFGF (R&D Systems, catalog #234-FSE). The A2-SV or an IgG4 E3 antibody (10 μg/ml) or PBS was injected subcutaneously into the abdominal area of NMRI nu/nu mice (150 μl of Matrigel/plug).
In the first assay, two mice were injected with […]™ supplemented with bFGF and soluble VEGFR-1 (10 μg/ml) as a positive control for an angiogenic inhibitor. At day 7 post-implantation mice were anesthetized and perfused through heart with 4% paraformaldehyde (PFA) in phosphate buffered saline (PBS). […]™ plugs and a piece of liver were removed and embedded in paraffin. Sections were cut and stained with hematoxylin and eosin (H&E).
In a second assay, mice were treated as described above, and then anesthetized eight days post-implantation and injected with fluorescein-conjugated tomato (lycopersicon esculentum) lectin (100 μg in 200 μl of PBS; Vector, catalog #FL-1171) into the tail vein. After five min circulation the animals were perfused through the heart with 10 ml of PBS followed by 10 ml of 4% PFA in PBS. […]™ plugs and pieces of kidney and liver were removed and frozen in OCT (Tissue-Tek). Nuclei were visualized on sections by using […]® mounting medium containing DAPI (Vector) and analyzed under fluorescence microscopy.

Tie1, sequence (P35590 22-1138): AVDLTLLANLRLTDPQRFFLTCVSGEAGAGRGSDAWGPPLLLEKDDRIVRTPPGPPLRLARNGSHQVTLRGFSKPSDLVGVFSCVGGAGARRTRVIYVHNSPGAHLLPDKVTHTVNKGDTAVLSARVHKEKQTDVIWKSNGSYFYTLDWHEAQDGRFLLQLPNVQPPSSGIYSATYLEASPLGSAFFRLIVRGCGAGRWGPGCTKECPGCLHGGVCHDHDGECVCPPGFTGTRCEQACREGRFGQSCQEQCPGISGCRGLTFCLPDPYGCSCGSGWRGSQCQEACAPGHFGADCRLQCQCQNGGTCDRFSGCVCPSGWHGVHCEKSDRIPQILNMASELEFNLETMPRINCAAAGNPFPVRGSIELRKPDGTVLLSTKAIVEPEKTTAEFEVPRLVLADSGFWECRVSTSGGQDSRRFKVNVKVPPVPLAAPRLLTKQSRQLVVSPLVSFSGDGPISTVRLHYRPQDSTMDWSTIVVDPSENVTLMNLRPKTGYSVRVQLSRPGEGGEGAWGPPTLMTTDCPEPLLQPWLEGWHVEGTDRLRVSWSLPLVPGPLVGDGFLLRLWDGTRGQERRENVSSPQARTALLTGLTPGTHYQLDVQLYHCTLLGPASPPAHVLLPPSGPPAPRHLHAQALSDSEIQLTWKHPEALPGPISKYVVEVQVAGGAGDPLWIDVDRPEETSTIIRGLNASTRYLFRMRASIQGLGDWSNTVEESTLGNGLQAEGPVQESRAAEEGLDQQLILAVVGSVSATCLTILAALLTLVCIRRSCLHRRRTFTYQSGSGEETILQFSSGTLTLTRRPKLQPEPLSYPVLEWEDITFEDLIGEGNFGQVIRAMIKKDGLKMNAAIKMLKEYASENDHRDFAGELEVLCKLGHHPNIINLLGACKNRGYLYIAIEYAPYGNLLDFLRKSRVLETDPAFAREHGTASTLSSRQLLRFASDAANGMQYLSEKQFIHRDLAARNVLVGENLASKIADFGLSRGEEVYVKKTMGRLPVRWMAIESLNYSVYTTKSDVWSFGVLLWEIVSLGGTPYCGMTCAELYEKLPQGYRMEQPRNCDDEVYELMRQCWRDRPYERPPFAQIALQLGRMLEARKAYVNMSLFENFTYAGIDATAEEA

## N.N.[Cl][Pt][Cl] [cisplatin, reference compound]
[1]; 5 days after cell injection (before treatment start at day 12)
  Tumor Weight: 48 mg
[1]; 9 days after cell injection (before treatment start at day 12)
  Tumor Weight: 69 mg
[1]; 12 days after cell injection (treatment start)
  Tumor Weight: 137 mg
[1]; 15 days after cell injection
  Tumor Weight: 185 mg
[1]; 19 days after cell injection
  Tumor Weight: 207 mg
[1]; 22 days after cell injection
  Tumor Weight: 235 mg
[1]; 26 days after cell injection
  Tumor Weight: 310 mg
[1]; 28 days after cell injection
  Tumor Weight: 363 mg

B1: D11: anti-Tie1 antibody; VH SEQ ID NO:84, VL SEQ ID NO:86 (antibody, V domains shown)
VH: EVQLLESGGGLVQPGGSLRLSCAASGFTFSGYAMWWVRQAPGKGLEWVSSISPSGGATAYADSVKGRFTISRDNSKNTLYLQMNSLRAEDTAVYYCARDAGSYYWGWFDPWGQGTLVTVSSASTKGPSVFP
VL: HSAQDIQMTQSPATLSLSPGERATLSCRASQSISSYLAWYQQKPGQPPRLLIYDASSRVTGIPARFSGSGFGTDFTLTISSLEPEDFAVYYCLQRSSWPRTFGQGTKLEIK
modifications: Synthetically generated peptide
[2]
  effect on the survival effect of E3 IgG in Tie1-EpoR Ba/F3 assay: completely blocked the viability; also recorded: blocked completely the survival effect of E3 IgG; also recorded: counteract the agonistic activity of E3
[3]
  staining of breast carcinoma: stained also other structures in addition to vessels
  staining of kidney: stained kidney tubules in addition to the vessels
  staining of lung carcinoma: stained structures other than vessels
  staining of melanoma tissue: also stained other surrounding structures
  staining of normal lung (large veins): faint staining
  staining of normal skin: stained blood vessels very faintly
  staining of veins and capillaries of mammary tissue (breast): stained those structures rather faintly

B2: soluble VEGFR1: soluble VEGFR-1 (10 μg/ml), positive control for an angiogenic inhibitor (protein, UniProt P17948 27-758, looked up)
extracellular domain: SKLKDPELSLKGTQHIMQAGQTLHLQCRGEAAHKWSLPEMVSKESERLSITKSACGRNGKQFCSTLTLNTAQANHTGFYSCKYLAVPTSKKKETESAIYIFISDTGRPFVEMYSEIPEIIHMTEGRELVIPCRVTSPNITVTLKKFPLDTLIPDGKRIIWDSRKGFIISNATYKEIGLLTCEATVNGHLYKTNYLTHRQTNTIIDVQISTPRPVKLLRGHTLVLNCTATTPLNTRVQMTWSYPDEKNKRASVRRRIDQSNSHANIFYSVLTIDKMQNKDKGLYTCRVRSGPSFKSVNTSVHIYDKAFITVKHRKQQVLETVAGKRSYRLSMKVKAFPSPEVVWLKDGLPATEKSARYLTRGYSLIIKDVTEEDAGNYTILLSIKQSNVFKNLTATLIVNVKPQIYEKAVSSFPDPALYPLGSRQILTCTAYGIPQPTIKWFWHPCNHNHSEARCDFCSNNEESFILDADSNMGNRIESITQRMAIIEGKNKMASTLVVADSRISGIYICIASNKVGTVGRNISFYITDVPNGFHVNLEKMPTEGEDLKLSCTVNKFLYRDVTWILLRTVNNRTMHYSISKQKMAITKEHSITLNLTIMNVSLQDSGTYACRARNVYTGEEILQKKEITIRDQEAPYLLRNLSDHTVAISSSTTLDCHANGVPEPQITWFKNNHKIQQEPGIILGPGSSTLFIERVTEEDEGVYHCKATNQKGSVESSAYLTVQGTSDKSNLE
modifications: extracellular domain
[4]
  vessel-like structures in MATRIGEL plugs (H&E staining): neither modification of the matrix nor organization of the cells
